Reference: the supplement of paper PMC9170038

Legend:
[1] = test system: MS2 coat protein; assay: apparent KD of MS2 coat protein, switch OFF state (with FMN for OFF switches, without FMN for ON switches); designed switch direction (-1 OFF switch, 1 ON switch): -1; higher = weaker reporter binding; settings: FMN input: 0 or 200 uM; Eterna round: R93 (includes R88 designs)
Method in brief: (§1)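 Apparent KD stands for the median, per design, of fits to normalised cluster binding curves. The curves came from titrating on-chip-transcribed RNA switches on Illumina sequencing clusters with SNAP-549-labelled MS2 coat protein, twofold from 0.7 or 1.5 nM to 3 µM. Buffer was 100 mM Tris-HCl pH 7.5, 80 mM KCl, 4 mM MgCl2, without or with constant ligand.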

[2] = test system: MS2 coat protein; assay: apparent KD of MS2 coat protein, switch ON state; designed switch direction (-1 OFF switch, 1 ON switch): -1; higher = weaker reporter binding; settings: FMN input: 0 or 200 uM; Eterna round: R93 (includes R88 designs)
Method in brief: as §1

Sequence | apparent KD of MS2 coat protein [1] [nM] | apparent KD of MS2 coat protein [2] [nM]
CCUAUGUCAGGAUAUCAGUAGUAAAAAAAAAAAAUUACUACUGAGAAGGGACAUGAGGAUCACCCAUGUUCAAA [EX4 313: Super Stable 13] | 66.4 | 42.4
CCUGUGUGAGGAUAUGGUAAAAAAAAAAAAAAAUAGCUCCUCCAGAAGGCACAUGAGGAUCACCCAUGUCGUGG [Jolly's Folly 16 - Jieux - Exclusion 4] | 73.9 | 37.6
CUCAAGUAAGGAUAUCGAAGAAAAGAAGAGAAAGAAAAGAACGAGAAGGUACAUGAGGAUCACCCAUGUAAGAA [EteRNA is fun!] | 28 | 32.4
CUCAAGUAAGGAUAUCUAAGAAAAGAAGAGAAAGAAAAGAAAGAGAAGGUACAUGAGGAUCACCCAUGUAAGAA [EteRNA is fun!] | 29.9 | 34.4
CUCAAGUAAGGAUAUGAAAGAAAAGAAGAGAAAGAAAAGAAUCAGAAGGUACAUGAGGAUCACCCAUGUAAGAA [EteRNA is fun!] | 23.1 | 30.3
CUCAAGUAAGGAUAUGCAAGAAAAGAAAAGAAAGAAAAGAAGCAGAAGGUACAUGAGGAUCACCCAUGUAAGAA [EteRNA is fun!] | 42.3 | 25.4
CUCAUGUGAGGAUAUCAGUAGUAAAAAAAAAAAAUUACUACUGAGAAGGCACAUGAGGAUCACCCAUGUACCUU [EX4 326: Super Stable 26] | 42.6 | 37.7
CUCUAGUAAGGAUAUCGAAGAAAAGAAAAGAAAGAAAAGAACGAGAAGGUACAUGAGGAUCACCCAUGUAAGAA [EteRNA is fun!] | 19 | 34.5
CUCUAGUUAGGAUAUCGAAGAAAAGAAAAGAAAGAAAAGAACGAGAAGGAACAUGAGGAUCACCCAUGUAAGAA [EteRNA is fun!] | 28 | 29.1
GAAAAGUGAGGAUAUUCGGAAGGGAAAGCGCAAACCCAACCGAAGAAGGCACAUGAGGAUCACCCAUGUGGAAG [Mat - Exaclusion 4 - Eli mod - D58] | 28.7 | 23.6
GAAACACAUGAGGAUCACCCAUGUCAGGAUAUUCAAACAAAAACAAAACAAAACAAACGAAGAAGGGACAAAAG [Mat - Same state - Mayanna Mod - D102] | 32.6 | 27
GAAGAACAUGAGGAUCACCCAUGUGAGGAUAUACAGAAGGGAAUAAAAUAACCUGAAAGUAGAAGGCACAAGAA [Ex 1 May 41] | 65.8 | 45.7
GAAUGAUGAGGAUAUACAUGAGGAUCACCCAUGUGUAAAAAUAAAUACACAAAAGAAAGUAGAAGGCAUCAAAG [Mat - Exclusion 3 - Mayanna mod - D120] | 99 | 22.9
GAGAGGGCAGGAUAUGCGGAGAGAGAGAGAGAGAGAGAGAGACAUGAGGAUCACCCAUGUAGAAGGGCCGAGAG [salish99-ex2-09] | 28.1 | 62.3
GAUCCACAUGAGGAUCACCCAUGUAAGGAUAUUUAAAACCGGAGGAAACCCUCCGAAGAAAGAAGGUACAAAAC [Atceabi] | 14.5 | 14.6
GCUGUCGUAGGAUAUACAUGAGGAUCACCCAUGUGAGAGAAAAAAGUGAGAAAGAAAAGUAGAAGGACGGUAGG [salish99-ex3-105] | 43.1 | 37.5
GGAAAACAUGAGGAUCACCCAUGUAAGGAUAUGCAAAAAAAAGGAUAUAGAAGGAAAAGCAGAAGGUACAAAGG [salish99-ex1-26] | 38.2 | 30.8
GGAAAACAUGAGGAUCACCCAUGUAAGGAUAUGCUAAAAAAAAAAAAAAAAAAAAAAUGCAGAAGGUACUAAAG [Amethyst 18] | 118 | 34
GGAAAACAUGAGGAUCACCCAUGUCAGGAUAUACAAAGAAAGAAAGAAAAGAAAGAAAGUAGAAGGGACAAAAG [Amethyst 15] | 31.9 | 27.1
